Measurements: patent publication US20220175921A1

How the values were obtained:
[1] = molecular target: human GITR, membrane bound (on activated human T cells or on 3A9-hGITR cells) (UniProt Q9Y5U5); experiment: cell-based or functional assay
[2] = molecular target: human GITR, membrane bound (on activated human T cells or on 3A9-hGITR cells) (UniProt Q9Y5U5); experiment: FACS binding; activated human CD8 T cells; conditions: ligand

Chain of human GITR, membrane bound (on activated human T cells or on 3A9-hGITR cells) (Q9Y5U5 26-241): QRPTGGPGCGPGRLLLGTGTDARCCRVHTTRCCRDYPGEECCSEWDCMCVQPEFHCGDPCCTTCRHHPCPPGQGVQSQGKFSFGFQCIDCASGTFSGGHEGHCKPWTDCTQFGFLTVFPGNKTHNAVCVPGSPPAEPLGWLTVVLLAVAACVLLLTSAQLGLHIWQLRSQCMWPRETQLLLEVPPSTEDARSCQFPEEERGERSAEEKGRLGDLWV
Chain of recombinant human GITR ligand trimer (R&D Systems 6987-GL) (Q9UNG2 49-177): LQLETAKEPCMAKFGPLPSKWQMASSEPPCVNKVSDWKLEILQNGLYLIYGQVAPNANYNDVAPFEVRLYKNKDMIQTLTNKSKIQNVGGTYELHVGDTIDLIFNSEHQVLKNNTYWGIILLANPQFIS

| Substance | NFKB signaling (phospho-p65) Emax, CD4+ T cells [1] | NFKB signaling (phospho-p65) Emax, CD8+ T cells [1] | IC50 [2] |
| --- | --- | --- | --- |
| hIgG1 Isotype Control (antibody) | 4% | 6% | – |
| recombinant human GITR ligand trimer (R&D Systems 6987-GL) (from UniProt Q9UNG2 49-177) | – | – | 0.0163 µg/mL |
